Ends that are not written are not given here.
T1: Human HVEM-Fc protein (human, UniProt Q92956 39-202)
T1 construct: herpes virus entry mediator (HVEM), human, as Fc fusion, bought; Detected by goat anti-human IgG(H+L)-HRP; source: bought: ACROBiosystems, USA (#HVM-H5258)
T1 sequence (looked up): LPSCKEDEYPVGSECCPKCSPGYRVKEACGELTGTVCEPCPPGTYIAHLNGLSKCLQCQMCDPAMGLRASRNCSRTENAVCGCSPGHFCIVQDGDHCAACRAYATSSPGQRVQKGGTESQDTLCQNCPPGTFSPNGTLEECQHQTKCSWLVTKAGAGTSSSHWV

T2: Recombinant human protein HVEM with His Tag (human, UniProt Q92956 39-202)
T2 construct: herpes virus entry mediator (HVEM), human, recombinant, bought; also called HVEM protein; herpes virus entry mediator; source: bought: Sino Biological Inc., China (#10334-H08H)
T2 sequence (looked up): T1 sequence (looked up)

B1: CD160(61–80) peptide elongated by five glycine residues and biotin (peptide)
peptide: GVGEISSQLMFTISQVTPLH
modifications: also: elongated by five glycine residues and biotin, end not given here
notes: CD160, human, residues 61-80; source: synthetic peptide
B2: CD160 (61–80) (peptide)
peptide: Ac-GVGEISSQLMFTISQVTPLH-NH2
notes: as for B1

What was measured:
Human HVEM-Fc protein = molecular target: T1, Human HVEM-Fc protein; experiment: ELISA; biotinylated peptides or biotinylated CD160 (1 μg/ml) on a streptavidin microplate; HVEM-Fc at 20, 10 and 5 μg/ml, 1 hour at 25°C; PBS-T (5 mM Na2HPO4, 150 mM NaCl with addition of 0.3 M NaCl and 0.05% Tween-20, pH 7.4); detection by goat antihuman IgG(H+L)–HRP; settings: both partners purified
[1] = molecular target: T2, Recombinant human protein HVEM with His …; experiment: microcolumn affinity test with mass spectrometry; HVEM protein immobilised in a microcolumn; peptide applied; supernatant, last wash and elution analysed by mass spectrometry; settings: both partners purified

| Binder | binding result (Human HVEM-Fc protein) | binding result [1] |
| --- | --- | --- |
| B1 | binds | – |
| B2 | – | binds |

Source: paper PMC6355189, “A structural model of the immune checkpoint CD160–HVEM complex derived from HDX-mass spectrometry and molecular modeling” (Oncotarget, 2019)
